Test results as given in IntAct's records for PubMed 22752157.

B1: Kinase suppressor of Ras 1 (Mus musculus), Q61097 (parent)
chain: MDRAALRAAAMGEKKEGGGGGAAADGGAGAAVSRALQQCGQLQKLIDISIGSLRGLRTKCSVSNDLTQQEIRTLEAKLVKYICKQQQSKLSVTPSDRTAELNSYPRFSDWLYIFNVRPEVVQEIPQELTLDALLEMDEAKAKEMLRRWGASTEECSRLQQALTCLRKVTGLGGEHKMDSGWSSTDARDSSLGPPMDMLSSLGRAGASTQGPRSISVSALPASDSPVPGLSEGLSDSCIPLHTSGRLTPRALHSFITPPTTPQLRRHAKLKPPRTPPPPSRKVFQLLPSFPTLTRSKSHESQLGNRIDDVTPMKFELPHGSPQLVRRDIGLSVTHRFSTKSWLSQVCNVCQKSMIFGVKCKHCRLKCHNKCTKEAPACRITFLPLARLRRTESVPSDINNPVDRAAEPHFGTLPKALTKKEHPPAMNLDSSSNPSSTTSSTPSSPAPFLTSSNPSSATTPPNPSPGQRDSRFSFPDISACSQAAPLSSTADSTRLDDQPKTDVLGVHEAEAEEPEAGKSEAEDDEEDEVDDLPSSRRPWRGPISRKASQTSVYLQEWDIPFEQVELGEPIGQGRWGRVHRGRWHGEVAIRLLEMDGHNQDHLKLFKKEVMNYRQTRHENVVLFMGACMNPPHLAIITSFCKGRTLHSFVRDPKTSLDINKTRQIAQEIIKGMGYLHAKGIVHKDLKSKNVFYDNGKVVITDFGLFGISGVVREERRENQLKLSHDWLCYLAPEIVREMIPGRDEDQLPFSKAADVYAFGTVWYELQARDWPFKHQPAEALIWQIGSGEGVRRVLASVSLGKEVGEILSACWAFDLQERPSFSLLMDMLERLPKLNRRLSHPGHFWKSADINSSKVMPRFERFGLGTLESGNPKM

Variants of: B1
Conditions: with VRK2, Q86Y07-1
Sequence of VRK2, Q86Y07-1 (Q86Y07 whole entry): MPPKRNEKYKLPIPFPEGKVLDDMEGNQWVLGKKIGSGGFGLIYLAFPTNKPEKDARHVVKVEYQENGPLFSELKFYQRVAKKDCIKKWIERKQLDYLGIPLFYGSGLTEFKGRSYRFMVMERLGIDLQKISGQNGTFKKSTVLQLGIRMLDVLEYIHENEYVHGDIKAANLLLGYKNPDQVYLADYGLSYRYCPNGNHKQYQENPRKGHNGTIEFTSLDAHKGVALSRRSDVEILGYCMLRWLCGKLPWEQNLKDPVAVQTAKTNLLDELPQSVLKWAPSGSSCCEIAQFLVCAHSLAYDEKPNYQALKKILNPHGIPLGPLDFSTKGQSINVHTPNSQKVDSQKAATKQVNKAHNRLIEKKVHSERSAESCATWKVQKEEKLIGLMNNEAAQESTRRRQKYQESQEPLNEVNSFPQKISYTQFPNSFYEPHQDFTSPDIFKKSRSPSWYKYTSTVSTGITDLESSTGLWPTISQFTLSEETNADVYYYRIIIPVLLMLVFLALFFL

**Q.** How did the “effect of a mutation on the interaction” value turn out when C809Y was run?
**A.** The value was “decreasing interaction”.
